Results on four molecules are retold here after publication PMC9073327.

Data set [1] has as its target T1, LHY:MBP (Arabidopsis thaliana, UniProt Q6R0H1 1-645).
T1 sequence: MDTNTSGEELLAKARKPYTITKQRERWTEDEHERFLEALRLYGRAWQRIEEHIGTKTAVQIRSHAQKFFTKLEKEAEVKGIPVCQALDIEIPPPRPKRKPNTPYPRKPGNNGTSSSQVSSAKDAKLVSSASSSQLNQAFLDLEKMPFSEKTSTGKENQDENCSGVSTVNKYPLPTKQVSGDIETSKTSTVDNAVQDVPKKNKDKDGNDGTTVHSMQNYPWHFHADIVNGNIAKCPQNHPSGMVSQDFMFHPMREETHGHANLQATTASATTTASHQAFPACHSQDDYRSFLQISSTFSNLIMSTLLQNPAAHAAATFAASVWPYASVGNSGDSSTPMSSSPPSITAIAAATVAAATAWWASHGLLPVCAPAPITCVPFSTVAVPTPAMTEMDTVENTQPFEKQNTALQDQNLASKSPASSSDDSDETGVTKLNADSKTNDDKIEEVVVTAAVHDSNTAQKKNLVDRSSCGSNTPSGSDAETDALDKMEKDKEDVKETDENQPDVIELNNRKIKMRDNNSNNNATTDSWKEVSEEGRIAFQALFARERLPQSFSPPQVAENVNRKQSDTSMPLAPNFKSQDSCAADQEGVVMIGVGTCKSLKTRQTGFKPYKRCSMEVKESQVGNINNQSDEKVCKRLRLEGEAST
Nature of the data set: EMSA. (A gel shift assay detects complexes by their altered migration in electrophoresis.)

The target of data set [2] is T2, CCA1:MBP (Arabidopsis thaliana, UniProt P92973 1-608). Put plainly: EMSA.
T2 sequence (P92973 whole entry): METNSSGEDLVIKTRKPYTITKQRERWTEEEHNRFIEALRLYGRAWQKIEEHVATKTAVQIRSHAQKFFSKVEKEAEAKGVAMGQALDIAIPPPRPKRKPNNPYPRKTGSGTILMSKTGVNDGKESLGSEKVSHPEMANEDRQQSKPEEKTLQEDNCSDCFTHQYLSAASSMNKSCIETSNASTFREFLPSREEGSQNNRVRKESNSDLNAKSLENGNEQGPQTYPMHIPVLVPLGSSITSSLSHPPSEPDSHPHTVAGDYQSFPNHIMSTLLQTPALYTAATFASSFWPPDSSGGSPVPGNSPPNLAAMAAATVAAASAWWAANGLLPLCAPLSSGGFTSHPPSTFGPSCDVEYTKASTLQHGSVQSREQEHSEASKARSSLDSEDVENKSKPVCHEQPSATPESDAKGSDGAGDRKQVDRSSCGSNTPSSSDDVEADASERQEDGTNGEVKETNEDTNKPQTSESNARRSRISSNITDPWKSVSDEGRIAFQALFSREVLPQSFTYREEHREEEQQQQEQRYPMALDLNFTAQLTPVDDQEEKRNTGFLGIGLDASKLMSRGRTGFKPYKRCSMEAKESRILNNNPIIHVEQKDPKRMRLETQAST
The next data set has as its target LHY:MBP;WRKY10:MYC (Arabidopsis thaliana;Arabidopsis …, UniProt Q6R0H1;Q9LG05 1-645;1-485, |). Put plainly: EMSA.
Another data set has as its target LHY:MBP;WRKY2:HIS (Arabidopsis thaliana;Arabidopsis …, UniProt Q6R0H1;Q9FG77 1-645;1-687, |). Put plainly: EMSA.
The target in data set [3] is T1, LHY:MBP. Put plainly: competition.
Data set [4] has as its target T2, CCA1:MBP. Put plainly: competition.
Data set [5] deals with T3, WRKY2:HIS (Arabidopsis thaliana (Col), UniProt Q9FG77 1-687). Put plainly: EMSA.
T3 sequence (Q9FG77 whole entry): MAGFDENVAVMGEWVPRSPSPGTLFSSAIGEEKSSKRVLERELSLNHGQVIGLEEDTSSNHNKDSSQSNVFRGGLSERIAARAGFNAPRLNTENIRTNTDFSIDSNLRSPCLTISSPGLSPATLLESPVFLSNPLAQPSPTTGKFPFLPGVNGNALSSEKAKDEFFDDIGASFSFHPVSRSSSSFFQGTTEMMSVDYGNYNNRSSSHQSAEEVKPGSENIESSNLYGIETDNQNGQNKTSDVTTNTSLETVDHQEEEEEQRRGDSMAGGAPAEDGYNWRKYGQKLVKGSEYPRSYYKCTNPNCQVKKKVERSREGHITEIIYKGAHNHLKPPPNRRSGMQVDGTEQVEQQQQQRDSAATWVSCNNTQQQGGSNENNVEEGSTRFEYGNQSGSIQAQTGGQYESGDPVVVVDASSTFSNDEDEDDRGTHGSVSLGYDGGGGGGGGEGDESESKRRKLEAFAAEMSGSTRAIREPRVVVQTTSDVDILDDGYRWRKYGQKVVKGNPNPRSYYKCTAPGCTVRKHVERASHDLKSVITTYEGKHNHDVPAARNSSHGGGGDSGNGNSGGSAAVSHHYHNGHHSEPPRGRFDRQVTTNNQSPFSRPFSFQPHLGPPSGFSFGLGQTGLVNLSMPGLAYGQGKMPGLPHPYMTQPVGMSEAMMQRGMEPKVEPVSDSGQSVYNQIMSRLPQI
In data set [6] the target is T4, WRKY10:MYC (Arabidopsis thaliana (Col), UniProt Q9LG05 1-485). Put plainly: EMSA.
T4 sequence (Q9LG05 whole entry): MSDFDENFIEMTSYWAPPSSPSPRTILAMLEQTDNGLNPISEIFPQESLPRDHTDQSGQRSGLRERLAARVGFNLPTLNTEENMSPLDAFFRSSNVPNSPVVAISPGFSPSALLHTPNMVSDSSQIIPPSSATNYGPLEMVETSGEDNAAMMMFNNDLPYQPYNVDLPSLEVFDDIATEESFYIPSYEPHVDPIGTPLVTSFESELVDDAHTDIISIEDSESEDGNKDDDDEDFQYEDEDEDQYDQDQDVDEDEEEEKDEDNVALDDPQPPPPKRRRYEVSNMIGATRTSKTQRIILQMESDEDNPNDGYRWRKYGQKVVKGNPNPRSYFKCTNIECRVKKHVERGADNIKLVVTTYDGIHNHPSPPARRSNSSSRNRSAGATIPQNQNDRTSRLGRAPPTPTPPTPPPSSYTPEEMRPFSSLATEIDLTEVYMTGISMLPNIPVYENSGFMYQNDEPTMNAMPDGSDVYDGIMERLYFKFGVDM
Data set [7] has as its target T3, WRKY2:HIS. Nature of the data set: competition.
In data set [8] the target is T4, WRKY10:MYC. Nature of the data set: competition.

LHY:MBP;WRKY10:MYC, sequence (Q9LG05 whole entry, one chain of several): as the sequence (Q9LG05 whole entry) above
LHY:MBP;WRKY2:HIS, sequence (Q9FG77 whole entry, one chain of several): as the sequence (Q9FG77 whole entry) above

B1: PIF4 M1-box probe (4M1) (dsDNA)
DNA 1: ATCTCCCTCGCTGTAATATCTTTATGCTCCTGTCACT
DNA 2: AGTGACAGGAGCATAAAGATATTACAGCGAGGGAGAT
B1: the binding result with LHY:MBP [1], in the data set with CCA1:MBP [2], in the data set with LHY:MBP;WRKY10:MYC and in the data set with LHY:MBP;WRKY2:HIS was “binds” each time.

B2: PIF4 M1-box mutant competitor (4M1 mut) (dsDNA)
DNA 1: ATCTCCCTCGCTGTAATTGCTTTATGCTCCTGTCACT
DNA 2: AGTGACAGGAGCATAAAGCAATTACAGCGAGGGAGAT
B2: the binding result with LHY:MBP [3] and in the data set with CCA1:MBP [4] was “no binding” throughout.

B3: PIF4 W1-box probe (4W1) (dsDNA)
DNA 1: CTATAGATGATTGTGATTTGACAAAAACACCCTCAAATCA
DNA 2: TGATTTGAGGGTGTTTTTGTCAAATCACAATCATCTATAG
As for B3, the binding result with WRKY2:HIS [5] and with WRKY10:MYC [6] was “binds” each time.

B4: PIF4 W1-box mutant competitor (4W1 mut) (dsDNA)
DNA 1: CTATAGATGATTGTGATGGTGTGAAAACACCCTCAAATCA
DNA 2: TGATTTGAGGGTGTTTTCACACCATCACAATCATCTATAG
In the case of B4, the binding result in the data set with WRKY2:HIS [7] and with WRKY10:MYC [8] was “no binding” throughout.
